Assay results from publication PMC6593972.

Target: fluorescein isothiocyanate (FITC)-casein
Assay: fluorescence polarisation; fluorescence anisotropy; FITC-casein 100 nM, ClpB (WT or mutant) varied; Reaction buffer, 10 min at 30°C, 2 mM ATP; black 384 well plates; Kd by nonlinear regression

fluorescein isothiocyanate (FITC)-casein, sequence (P02662 16-214): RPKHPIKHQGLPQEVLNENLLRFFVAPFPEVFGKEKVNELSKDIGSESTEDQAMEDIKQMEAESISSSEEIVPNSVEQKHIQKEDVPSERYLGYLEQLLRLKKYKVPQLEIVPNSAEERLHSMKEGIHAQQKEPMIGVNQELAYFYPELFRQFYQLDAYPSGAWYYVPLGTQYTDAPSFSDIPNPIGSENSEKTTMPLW
ClpB wild-type, sequence (P63284 whole entry): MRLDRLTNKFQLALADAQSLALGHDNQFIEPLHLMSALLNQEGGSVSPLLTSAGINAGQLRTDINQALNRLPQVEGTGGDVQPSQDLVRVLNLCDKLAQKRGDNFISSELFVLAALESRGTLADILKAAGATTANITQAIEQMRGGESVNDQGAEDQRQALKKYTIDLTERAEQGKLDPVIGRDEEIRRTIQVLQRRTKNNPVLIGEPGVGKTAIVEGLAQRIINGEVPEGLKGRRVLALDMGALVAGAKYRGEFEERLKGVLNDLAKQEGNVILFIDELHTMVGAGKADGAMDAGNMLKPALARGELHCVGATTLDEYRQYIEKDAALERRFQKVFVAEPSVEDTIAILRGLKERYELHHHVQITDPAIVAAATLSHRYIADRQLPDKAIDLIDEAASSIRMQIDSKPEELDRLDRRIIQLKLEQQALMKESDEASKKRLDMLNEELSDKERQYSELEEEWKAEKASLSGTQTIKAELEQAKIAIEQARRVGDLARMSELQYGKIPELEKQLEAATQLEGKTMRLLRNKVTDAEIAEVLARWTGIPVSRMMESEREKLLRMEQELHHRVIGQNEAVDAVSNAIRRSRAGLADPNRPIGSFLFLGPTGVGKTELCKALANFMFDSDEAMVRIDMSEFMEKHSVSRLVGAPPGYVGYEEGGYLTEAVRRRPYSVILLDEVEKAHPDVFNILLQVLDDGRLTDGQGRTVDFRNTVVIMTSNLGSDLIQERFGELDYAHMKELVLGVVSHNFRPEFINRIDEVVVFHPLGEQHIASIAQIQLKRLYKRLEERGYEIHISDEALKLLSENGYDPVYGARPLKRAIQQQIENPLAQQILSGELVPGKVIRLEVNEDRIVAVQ

| Substance | Kd |
| --- | --- |
| ClpB wild-type (from UniProt P63284 1-857) (natural protein) | 0.33 µM |
| ClpB-K476C (from UniProt P63284 1-857) (natural protein) | 0.22 µM |
